Assays:
[1] = molecular target: T1, human suPAR (hsuPAR) recombinant protein (human), Q03405; experiment: BLI, with WAb0014 against without; details: remark: other sources report otherwise
[2] = molecular target: T1, human suPAR (hsuPAR) recombinant …; experiment: BLI (Octet Red96E), hsuPAR 2 µg/mL on streptavidin sensor, vitronectin as analyte
[3] = molecular target: T1, human suPAR (hsuPAR) recombinant …; experiment: BLI (Octet Red96E), WAb0014 on AHC sensor, hsuPAR captured, vitronectin as analyte (in the presence of WAb0014)

T1 sequence (Q03405 23-303): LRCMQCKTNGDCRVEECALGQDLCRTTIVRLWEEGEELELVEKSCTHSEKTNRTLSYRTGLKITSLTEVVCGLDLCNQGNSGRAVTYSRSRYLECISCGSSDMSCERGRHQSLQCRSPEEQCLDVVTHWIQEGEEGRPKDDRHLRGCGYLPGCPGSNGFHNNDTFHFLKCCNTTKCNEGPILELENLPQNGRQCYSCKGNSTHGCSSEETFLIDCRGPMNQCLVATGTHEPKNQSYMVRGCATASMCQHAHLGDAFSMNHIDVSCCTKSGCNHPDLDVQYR

B1: vitronectin, P04004 20-478 (ligand)
chain: DQESCKGRCTEGFNVDKKCQCDELCSYYQSCCTDYTAECKPQVTRGDVFTMPEDEYTVYDDGEEKNNATVHEQVGGPSLTSDLQAQSKGNPEQTPVLKPEEEAPAPEVGASKPEGIDSRPETLHPGRPQPPAEEELCSGKPFDAFTDLKNGSLFAFRGQYCYELDEKAVRPGYPKLIRDVWGIEGPIDAAFTRINCQGKTYLFKGSQYWRFEDGVLDPDYPRNISDGFDGIPDNVDAALALPAHSYSGRERVYFFKGKQYWEYQFQHQPSQEECEGSSLSAVFEHFAMMQRDSWEDIFELLFWGRTSAGTRQPQFISRDWHGVPGQVDAAMAGRIYISGMAPRPSLAKKQRFRHRNRKGYRSQRGHSRGRNQNSRRPSRATWLSLFSSEESNLGANNYDDYRMDWLVPATCEPIQSVFFFSGDKYYRVNLRTRRVDTVDPPYPRSIAQYWLGCPAPGHL
fold reduction in affinity in the presence of WAb0014 [1]: 5 fold | Kd [2]: 13.5 nM | Kd [3]: 62.2 nM
